Results taken from patent US20250076311A1 (Chugai, published 2025).
One block for each binder: values may come before it.

Columns and labels:
[1] = biological target: T1, cynomolgus monkey FcγRIIb extracellular domain, His-tagged (cynomolgus monkey); assay: SPR Biacore, antibody captured, FcgR analyte
T1 construct: also called cyno FcγRIIb; cynoFcγRIIb; not shown: C-terminal His-tag
T1 chain: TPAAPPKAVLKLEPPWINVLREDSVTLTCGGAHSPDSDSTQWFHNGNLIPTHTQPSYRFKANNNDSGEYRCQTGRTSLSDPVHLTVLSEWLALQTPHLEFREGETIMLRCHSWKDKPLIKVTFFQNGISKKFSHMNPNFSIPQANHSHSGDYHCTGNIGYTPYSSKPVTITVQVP

[2] = biological target: T2, cynomolgus monkey FcγRIIa2 extracellular domain, His-tagged (cynomolgus monkey); assay: SPR Biacore, KD(SG1)/KD(variant)
T2 construct: also called cyno FcγRIIa2; cynoFcgRIIa2; not shown: C-terminal His-tag
T2 chain: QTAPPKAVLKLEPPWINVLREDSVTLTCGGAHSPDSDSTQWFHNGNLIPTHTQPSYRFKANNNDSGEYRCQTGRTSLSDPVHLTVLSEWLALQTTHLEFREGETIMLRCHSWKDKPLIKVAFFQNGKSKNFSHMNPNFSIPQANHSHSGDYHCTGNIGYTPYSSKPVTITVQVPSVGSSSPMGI

[3] = biological target: T3, human FcγRIIaR extracellular domain, His-tagged (human, UniProt P12318 34-217); assay: SPR Biacore, KD(SG1)/KD(variant)
T3 construct: also called human FcγRIIa (type R); FcgRIIaR; not shown: C-terminal His-tag
T3 chain: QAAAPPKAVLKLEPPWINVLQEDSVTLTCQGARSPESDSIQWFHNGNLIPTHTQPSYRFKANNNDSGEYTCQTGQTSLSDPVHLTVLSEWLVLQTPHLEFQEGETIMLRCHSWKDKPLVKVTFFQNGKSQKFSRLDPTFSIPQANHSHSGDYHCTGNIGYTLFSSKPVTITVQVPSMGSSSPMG

[4] = biological target: T4, human FcγRIIb extracellular domain, His-tagged (human, UniProt P31994 43-217); assay: SPR Biacore, KD(SG1)/KD(variant)
T4 construct: also called FcgRIIb (human); not shown: C-terminal His-tag
T4 sequence: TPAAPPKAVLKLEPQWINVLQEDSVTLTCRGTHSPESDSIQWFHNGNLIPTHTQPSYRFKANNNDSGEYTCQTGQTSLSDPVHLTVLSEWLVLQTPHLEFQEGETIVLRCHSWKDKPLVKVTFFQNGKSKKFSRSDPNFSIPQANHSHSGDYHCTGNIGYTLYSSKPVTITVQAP

[5] = biological target: T5, cynomolgus monkey FcγRIIa3 extracellular domain, His-tagged (cynomolgus monkey); assay: SPR Biacore, KD(SG1)/KD(variant)
T5 construct: also called cyno FcγRIIa3; cynoFcgRIIa3; not shown: C-terminal His-tag
T5 chain: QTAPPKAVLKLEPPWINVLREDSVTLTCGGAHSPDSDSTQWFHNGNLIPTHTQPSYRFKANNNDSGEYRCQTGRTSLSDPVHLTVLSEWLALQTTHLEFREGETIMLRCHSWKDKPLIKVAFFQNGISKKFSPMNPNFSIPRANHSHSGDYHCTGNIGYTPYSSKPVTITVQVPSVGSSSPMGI

[6] = biological target: T6, cynomolgus monkey FcγRIIa1 extracellular domain, His-tagged (cynomolgus monkey); assay: SPR Biacore, KD(SG1)/KD(variant)
T6 construct: also called cyno FcγRIIa1; cynoFcgRIIa1; not shown: C-terminal His-tag
T6 chain: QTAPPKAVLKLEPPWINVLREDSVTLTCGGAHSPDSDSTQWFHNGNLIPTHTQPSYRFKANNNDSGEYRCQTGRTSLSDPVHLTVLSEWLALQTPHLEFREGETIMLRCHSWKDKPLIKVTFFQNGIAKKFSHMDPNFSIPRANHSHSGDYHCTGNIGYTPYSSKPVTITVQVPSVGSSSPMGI

[7] = biological target: T7, human FcγRIIaH extracellular domain, His-tagged (human, UniProt P12318 34-217); assay: SPR Biacore, KD(SG1)/KD(variant)
T7 construct: also called human FcγRIIa (type H); FcgRIIaH; not shown: C-terminal His-tag
T7 sequence: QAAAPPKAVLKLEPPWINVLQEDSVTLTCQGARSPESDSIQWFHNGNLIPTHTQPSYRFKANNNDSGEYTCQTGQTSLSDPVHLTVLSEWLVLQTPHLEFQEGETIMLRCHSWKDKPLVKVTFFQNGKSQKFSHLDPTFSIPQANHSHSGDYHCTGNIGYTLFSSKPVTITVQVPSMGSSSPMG

Human latent myostatin [8] = biological target: T8, Human latent myostatin (human, UniProt O14793 25-266; O14793 267-375); assay: ELISA: biotinylated antigen (4 nM) on streptavidin-coated plate, antibody titrated, anti-human IgG-HRP, ABTS, OD405
T8 construct: Biotinylated in the ELISAs; also called human myostatin latent form
T8 sequence 1: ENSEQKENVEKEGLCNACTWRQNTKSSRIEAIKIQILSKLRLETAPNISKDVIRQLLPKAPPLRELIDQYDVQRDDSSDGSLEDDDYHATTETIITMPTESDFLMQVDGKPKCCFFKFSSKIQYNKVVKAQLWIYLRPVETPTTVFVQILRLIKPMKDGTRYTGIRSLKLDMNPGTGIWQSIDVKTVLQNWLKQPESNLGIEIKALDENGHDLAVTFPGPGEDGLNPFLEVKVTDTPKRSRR
T8 sequence 2: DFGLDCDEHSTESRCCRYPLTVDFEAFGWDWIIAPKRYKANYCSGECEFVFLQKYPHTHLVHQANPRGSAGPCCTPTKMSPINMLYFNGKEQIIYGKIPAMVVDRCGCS
Protocol: (§1) Uncoated ELISA plates (NUNC-IMMUNO plate MAXISORP surface, Nalge Nunc International) were coated with 20 μL of 50 nM streptavidin (GenScript) for 1 hour at room temperature. Plates were then washed with PBST three times and blocked with 50 μL 20% Blocking One (Nacalai Tesque) overnight. On the next day, each well of each plate was incubated with biotinylated mature myostatin, human or mouse biotinylated latent myostatin, or biotinylated recombinant mouse myostatin propeptide-Fc chimera protein (R&D Systems) at 4 nM/well/20 μL for 2 hours. After washing, 20 μL of antibody sample was added to the wells and the plates were left for 1 hour. The plates were washed and 20 μL of anti-human IgG-horseradish peroxidase (HRP) (Abcam) diluted in HEPES-buffered saline was added, and the plates were left for another hour. The plates were then washed again, and then 50 μL ABTS (KPL) was added to each well, and the plates were incubated for 1 hour.

Mouse latent myostatin = biological target: T9, Mouse latent myostatin (mouse, UniProt O08689 26-267; O08689 268-376, limits assumed); assay: as above
T9 sequence 1: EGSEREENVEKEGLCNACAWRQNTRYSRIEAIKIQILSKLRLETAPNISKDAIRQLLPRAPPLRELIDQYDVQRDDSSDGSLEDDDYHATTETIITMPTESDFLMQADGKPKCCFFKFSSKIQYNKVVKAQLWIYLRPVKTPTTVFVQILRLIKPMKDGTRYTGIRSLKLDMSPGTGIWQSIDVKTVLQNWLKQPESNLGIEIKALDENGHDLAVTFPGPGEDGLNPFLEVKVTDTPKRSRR
T9 sequence 2: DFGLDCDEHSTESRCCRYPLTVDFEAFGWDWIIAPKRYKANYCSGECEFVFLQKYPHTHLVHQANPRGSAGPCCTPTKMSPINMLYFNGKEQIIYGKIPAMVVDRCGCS
Protocol: as §1

Mature myostatin = biological target: T10, Mature myostatin (human, UniProt O14793 267-375); assay: as above
T10 construct: Disulfide-bonded homodimer; Biotinylated in the ELISA; also called human myostatin mature form; active myostatin
T10 sequence: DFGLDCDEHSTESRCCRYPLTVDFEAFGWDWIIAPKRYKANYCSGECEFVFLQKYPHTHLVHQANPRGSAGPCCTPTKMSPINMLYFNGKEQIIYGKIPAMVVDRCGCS
Protocol: as §1

Human latent myostatin [9] = biological target: T8, Human latent myostatin; assay: ELISA: biotinylated human latent myostatin (2 nM) on streptavidin-coated plate, antibody titrated, anti-human IgG-HRP, ABTS, OD405
Protocol: Uncoated ELISA plates (NUNC-IMMUNO plate MAXISORP™ surface, Nalge Nunc International) were coated with 20 μL of 50 nM streptavidin (GenScript) for 2 hour at room temperature. Plates were then washed with PBST three times and blocked with 50 μL 20% Blocking One (Nacalai Tesque) for overnight. On the next day, each well of the plates was incubated with biotinylated human latent myostatin at 2 nM/well/20 μL or biotinylated human latent GDF11 at 20 nM/well/20 μL for 2 hours. After washing, 20 μL of antibody sample was added to the wells and the plates were left for 1 hour. The plates were washed and 20 μL of anti-human IgG-horseradish peroxidase (HRP) (Abcam) diluted in HEPES-buffered saline was added, and the plates were left for another hour. The wells were washed again, and then 50 μL ABTS (KPL) was added to each well, and the plates were incubated for 1 hour.

GST-hMSTN 81-180aa = biological target: T11, GST-hMSTN 81-180aa (human, UniProt A1C2U3 81-180 (Pongo pygmaeus entry)); assay: Western blot with the antibody as probe on GST-tagged 100-amino-acid fragments of the human latent myostatin propeptide expressed in E. coli BL21 (lanes 1-8), GST control (lane 9) and human latent myostatin 100 ng (lane 10)
T11 sequence: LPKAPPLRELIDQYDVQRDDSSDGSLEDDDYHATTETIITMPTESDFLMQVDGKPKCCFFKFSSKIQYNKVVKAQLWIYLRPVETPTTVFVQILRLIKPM
Description: (§2) Fragments of the N-terminal propeptide coding region of human latent myostatin were cloned into a pGEX4.1 vector so as to produce GST tagged propeptide fragments of 100 amino acid each, with 80 amino acid overlap (FIG. 22A). Protein expression was induced in transformed BL21 competent cells with Overnight Express Autoinduction System (Merck Millipore) and protein was extracted using the BUGBUSTER® protein extraction reagent (Novagen).

GST-hMSTN 41-140aa = biological target: T12, GST-hMSTN 41-140aa (human, UniProt O14793 41-140); assay: as above
T12 sequence: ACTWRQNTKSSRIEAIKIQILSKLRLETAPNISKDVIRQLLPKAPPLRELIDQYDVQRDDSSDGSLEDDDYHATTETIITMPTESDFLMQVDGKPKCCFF
Description: as §2

GST-hMSTN 101-200aa = biological target: T13, GST-hMSTN 101-200aa (human, UniProt A1C2U3 101-200 (Pongo pygmaeus entry)); assay: as above
T13 sequence: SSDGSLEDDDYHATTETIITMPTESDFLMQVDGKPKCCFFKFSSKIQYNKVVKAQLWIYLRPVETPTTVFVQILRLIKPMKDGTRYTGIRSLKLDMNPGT
Description: as §2

GST-hMSTN 61-160aa = biological target: T14, GST-hMSTN 61-160aa (human, UniProt O14793 61-160); assay: as above
T14 sequence: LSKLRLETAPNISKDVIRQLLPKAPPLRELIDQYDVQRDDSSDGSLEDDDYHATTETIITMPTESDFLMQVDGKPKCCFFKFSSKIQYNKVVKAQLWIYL
Description: as §2

Kd [1]: 680 nM | KD fold (SG1 = 1) [2]: 1.6 fold | KD fold (SG1 = 1) [3]: 3.9 fold | KD fold (SG1 = 1) [4]: 4.5 fold | KD fold (SG1 = 1) [5]: 3.1 fold
B1: M103205H795-MY017/M103202L889-SK1 (antibody, human IgG1, kappa, name in EU numbering)
heavy: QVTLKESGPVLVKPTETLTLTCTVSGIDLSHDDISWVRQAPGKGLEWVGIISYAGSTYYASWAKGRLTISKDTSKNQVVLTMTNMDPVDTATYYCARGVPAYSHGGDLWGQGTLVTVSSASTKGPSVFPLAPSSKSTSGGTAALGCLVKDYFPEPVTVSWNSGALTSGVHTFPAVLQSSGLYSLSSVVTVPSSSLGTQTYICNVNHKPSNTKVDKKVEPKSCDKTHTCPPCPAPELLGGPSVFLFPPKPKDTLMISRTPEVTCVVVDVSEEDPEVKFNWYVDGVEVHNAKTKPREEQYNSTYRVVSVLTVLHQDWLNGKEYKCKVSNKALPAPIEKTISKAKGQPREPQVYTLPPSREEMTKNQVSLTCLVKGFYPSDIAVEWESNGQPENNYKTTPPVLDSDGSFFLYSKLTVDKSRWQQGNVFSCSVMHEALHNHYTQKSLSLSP
light: DIVMTQSPATLSLSPGERATLSCTSSQSVYHANWLSWFQQKPGQPPKLLIYWASTLAYGVPSRFSGSGSGTDFTLTISSLQPEDAATYYCAGGYGGGRYAFGQGTKVEIKRTVAAPSVFIFPPSDEQLKSGTASVVCLLNNFYPREAKVQWKVDNALQSGNSQESVTEQDSKDSTYSLSSTLTLSKADYEKHKVYACEVTHQGLSSPVTKSFNRGEC
notes: Substitution introduced into M103205H795-SG1; EU numbering

KD fold (SG1 = 1) [6]: 1.2 fold | KD fold (SG1 = 1) [7]: 4.5 fold
B2: M103205H795-MY124/M103202L889-SK1 (antibody, human IgG1, kappa, name in EU numbering)
heavy: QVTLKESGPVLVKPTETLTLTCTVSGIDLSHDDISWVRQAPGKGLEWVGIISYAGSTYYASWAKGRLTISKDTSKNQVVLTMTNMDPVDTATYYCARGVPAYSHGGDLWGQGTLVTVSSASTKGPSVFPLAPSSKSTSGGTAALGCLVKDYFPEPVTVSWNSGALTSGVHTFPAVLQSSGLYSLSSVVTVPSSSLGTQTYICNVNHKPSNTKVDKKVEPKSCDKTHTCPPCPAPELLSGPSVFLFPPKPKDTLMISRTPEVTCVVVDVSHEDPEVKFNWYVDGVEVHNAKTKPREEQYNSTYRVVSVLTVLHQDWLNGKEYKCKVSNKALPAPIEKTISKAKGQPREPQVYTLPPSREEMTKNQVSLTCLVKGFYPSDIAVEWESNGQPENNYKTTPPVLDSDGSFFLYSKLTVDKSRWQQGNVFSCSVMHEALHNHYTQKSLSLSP
light: DIVMTQSPATLSLSPGERATLSCTSSQSVYHANWLSWFQQKPGQPPKLLIYWASTLAYGVPSRFSGSGSGTDFTLTISSLQPEDAATYYCAGGYGGGRYAFGQGTKVEIKRTVAAPSVFIFPPSDEQLKSGTASVVCLLNNFYPREAKVQWKVDNALQSGNSQESVTEQDSKDSTYSLSSTLTLSKADYEKHKVYACEVTHQGLSSPVTKSFNRGEC
notes: as for B1

EC50 (read off the curve) (Human latent myostatin [8]): ~0.008 µg/mL | EC50 (read off the curve) (Mouse latent myostatin): ~0.01 µg/mL | binding result (Mature myostatin): no binding (tested: 10 ng/µL (log 1)) | EC50 (read off the curve) (Human latent myostatin [9]): ~0.02 µg/mL
B3: MS_MST1032Ha-G1m/MST1032La-k0MC (antibody, human IgG1, kappa, V domains shown)
VH: QSLEESGGRLVTPGGSLTVTCRVSGIDLSSYDISWVRQAPGKGLEWIGIISYAGSTYYASWAKGRFTISKTSTTVDLKMTSLTTEDTATYFCARGVPAYSTGGDLWGPGTLVTVSS
VL: AQVLTQTASSVSAAVGGTVTINCQSSQSVYDNNWLSWFQQKPGQPPKLLIYWASTLASGVPSRFKGSGSGTQFTLTISDLECDDAATYYCAGGYGGGLYAFGGGTKVEIKR
notes: Rabbit/human chimeric antibody; also called MST1032-G1m

binding result (GST-hMSTN 81-180aa): no binding | binding result (GST-hMSTN 41-140aa): no binding | binding result (GST-hMSTN 101-200aa): no binding | binding result (GST-hMSTN 61-160aa): no binding
B4: MST1573 (antibody, human IgG1, kappa, V domains shown)
VH: QSVEESGGRLVTPGTPLTLTCTVSGIDLSSSSMIWVRQAPGEGLKYIGFISKSGYTYYASWAKGRFTISKTSTTVDLKITSPTTEDTATYFCARGGYSGDWDYFTLWGPGTLVTVSS
VL: DIVMTQTPASVEAAVGGTVTIKCQASESIGNALAWYQQKPGQPPKLLIYGAFNLESGVPSRFRGSGSGTEYTLTISDLECDDAATYYCQGYFWSSSTIYAFWAFGGGTKVEIKR
notes: Constant regions as for MST1504
